The values that follow come from the DeepSol protein solubility set.

The data set can be described thus: soluble on expression in E. coli; label from the status in PepcDB or PDB records.
Regarding “DPDEDSDNSAIYVQGLNDSVTLDDLADFFKQCGVVKMNKRTGQPMIHIYLDKETGKPKGDATVSYEDPPTAKAAVEWFDGKDFQGSKLKVSLARKKPPMN”, the “soluble on expression in E. coli” value is recorded as “soluble”.

As to “MVGDGIAKFIPEGFDAQKIPSFAIEKEPREQGALPADWVLVPEFSLTDGKANASLTVPEGTSIYGGGEVTGSLLRNGKTIKLWNTDSGAYGVDKGTRLYQSHPWMMGVRKDGTAFGILFDTTWKAELSSTDEKIELKSEGIPFRVFIIDRESPQAVIRGLSELTGTMPMIPRWALGYQQCRFSYSPDSRVIEIADTFRLKRIPCDVIWMDIDYMDGYRIFTFNPKSFPNPKAVNRDLHIRGFHSAWMIDPGAKVDPNYFVYKSGTENDVWVKTADGKNFHGDAWPGAAAFPDFTSPKVNKWWRNLYKDFLAQGVDGVWNDVNEPQINDTPNKTMPEDNLHRGGGKLPAGTHLQYHNVYGFLMVKASREGILDARPEKRPFILTRSNFLGGQRYAATWTGDNGSCWDHLKMSVPMSLTLGLSGQPFSGADIGGFLFNADADLFGNWIGFGAFYPFARGHACAGTNNKEPWVFGQKVEDASRIALERRYILLPYFYTLLHEASTNGMPIMRPVFFSDPKDLSLRAEEEAFLVGDNLLIIPAFANQPALPKGIWKELSLVEGDQNDKYQAKMKIRGGAIIPTGKIIQNTTENSLDPLTLLVCLDEQGKASGNMYWDAGDGWSYKKGDYSLLQFVAERNGDKVTVKLTKKTGKYNTENKDMAVIKIITDQGIRQASGNLVEGIEIRL”, the “soluble on expression in E. coli” value is listed as “not soluble”.

In the case of “MAGDPMKLQKSNHTILLVLEKGEDIVECITTFADDQDLTFTSVSGIGACDDVVLKFFNLTTKQYEEKHITEPLELTSLLGNISRLDNGHFAHLHATFGTQSYETFSGHLAKAIVSATAEIILTVTDLDIQRSFKDAVGLNLLDPQLEHHHHHH”, the “soluble on expression in E. coli” value is listed as “soluble”. Take “MMYFISDTHFYHENIINLNPEVRFKGFEIVILTNLLKVLKPEDTLYHLGDFTWHFNDKNEYLRIWKALPGRKILVMGNHDKDKESLKEYFDEIYDFYKIIEHKGKRILLSHYPAKDPITERYPDRQEMVREIYFKENCDLLIHGHVHWNREGIKCACKDYRIECINANVEWNDYKPISEREIDKLISYEKAKN”: the “soluble on expression in E. coli” value is listed as “soluble”. For “MGSDKIHHHHHHMATVDLSQLPQPQIIEVLDFEVILREVKAVMIAAFPANQQASVTAALELESEPLNQIAQVIAYRELMLRQRINEGAASCMLSHAVSSDLDNLAANLNTERLVITAETETADAVMENDAAFRLRAQSAFEGLSVAGPTAAYEYFAKSASGKVKDAKAISPSPAVVVVSVISSEANGTASSELLSTVETALSAEDKRPVADRLTVQSAEIVDFAINAVLYLYPGPESEPIHTAAQKALQSWIGEQGMIGRDVARSSIMAALHVQGVQRVSVVEPPHDIVISDTQAAYCTGFTVTTGGIDG”, the “soluble on expression in E. coli” value is recorded as “not soluble”. With “MGSDKIHHHHHHMTTLGVVYDKFLSPYFAGGGAVHAYEVTIRLKEHFKIVYYPSSPVLSWDKENVEKKAKELESQGIKVADEFYEILEEKRRIGRLKRFLFADKIAREFSKGFKVDADILYEPDHTSLDIFYLARDTKYGVTFHEPPFYNNSLRYFRRLVKFYGVNPYTGKGFHTRFLYNEYIKYLYKRLFKKVKKPTFLAGVSEAPLLESGLGGEVIKPGNAFNPSLLKFRNRGKEDYVVFWSRLNQDKGFHELPDILRIMEKRGGNKVRLILMGKFFDKYNERRFWSKVRKYDLRVDYKGFVKREELADIVSKAKVLIYPSHVDGFSLVALESLALGTPVVAYDIPAIKSVYGGLECVRIVNEFDKESMAENALKFYKMSEKEIEEIMNGDKLMEFLKLHSNWDNVANSVLKILKKYLI”, the “soluble on expression in E. coli” value is listed as “not soluble”.

Take “MTDNNKYRDVEIRAPRGNKLTAKSWLTEAPLRMLMNNLDPQVAENPKELVVYGGIGRAARNWECYDKIVETLTRLEDDETLLVQSGKPVGVFKTHSNAPRVLIANSNLVPHWANWEHFNELDAKGLAMYGQMTAGSWIYIGSQGIVQGTYETFVEAGRQHYGGSLKGKWVLTAGLGGMGGAQPLAATLAGACSLNIESQQSRIDFRLETRYVDEQATDLDDALVRIAKYTAEGKAISIALHGNAAEILPELVKRGVRPDMVTDQTSAHDPLNGYLPIGWTWEQYRDRAQTIPAAVVKAAKASMAVHVQAMLDFQKQGVPTFDYGNNIRQMAKEEGVANAFDFPGFVPAYIRPLFCRGVGPFRWAALSGEAEDIYKTDAKVKELIPDDAHLHRWLDMARERISFQGLPARICWVGLGLRAKLGLAFNEMVRSGELSAPVVIGRDHLDSGSVSSPNRETEAMRDGSDAVSDWPLLNALLNTAGGATWVSLHHGGGVGMGFSQHSGMVIVCDGTDEAAERIARVLTNDPGTGVMRHADAGYDIAIDCAKEQGLDLPMITG”: the “soluble on expression in E. coli” value is “soluble”.

With “MAHHHHHHMKRGREEDKEAEVGGSRVGPSDRRSAATSTEHKPRRLLKGADVGLPLHESVIEETCEVEETHAVLVRFPCFDFFRHVRVCERTRDLQPATSDDAAKASASLASALSDTTFRSGAPPVTSTHDTADVAFAPEAAVFIPGTLETDAPRLLLNGGTPHEMLFEGQWTEVTGEGVSVTNRAVVHLSAKTAGIAVSPAALPLNTSPIMSDAAKSPELARAAAESFPASASQATATPALPIASLLTHTLAGVTADEERRQRAEQQKGWTYDRIDVPSAVLVMHRVR”, the “soluble on expression in E. coli” value is “not soluble”. Take “GAEPVDEEAPLLMKNQKDFSSYLMGRQSIYKRHIIEDFVRKMLPGISEHKAASINNAVYSNFVREYKMLVKPEVSKKNYSRDVPFPDIELSLLPGAKEILEKSRNANSRVILISNRGHGDLENEINHLGMMHYFDVVSGAEEVTLEKSHLPPSQMPEDLQKRLINSLNGSDEEALRATLSEAAIYAHPDSTTIERIDKKPDSTRLAESLERLSVQPNVPITSYGDQPSDIKQLKSVAEPKSRVLKGVIVNAQRDDVGREIDVDGVPTRVVSKITEL”: the “soluble on expression in E. coli” value is reported as “not soluble”. In the case of “SKSGAQTPKSPPEHYVQETPLMFSRCTSVSSLDSFESRSIASSVQSEPCSGMVSGIISPSDLPDSPGQTMPPSRSKTPPPPPQTAQTKREVPKNKAPTAEKRESGPKQAAVNAAVQRVQVLPDADTLLHFATESTPDGFSCSSSLSALSLDEPFIQKDVELRIMPPVQENDNGNETESE”, the “soluble on expression in E. coli” value is “soluble”.

For “MSLNKQDKKWRVLVVDDDADVLTNTVYTLMDLKVLGRELDITTLGSATAAIELLERERDFAVILLDVVMEKPHAGLSLVTMIRHDFNMQMSRIILRTGNPGYAPERDITLKLEIDDYILKQTAVRDRIITAVIVAIRAYDQLQRLARLKDAMQQIICCSNQLLTTDEIDQFANVCMQYVAPIFGKNAGGGLAYAGMTVNQGIVPLTVMSATSEHESLIEPLNGEGHHHHHH”, the “soluble on expression in E. coli” value was “not soluble”. The same measure for “MLKVDKVFPWETFRGKLESPYSKKPKWDVILLLKVLLIKFVYEISWLEGEIRDSKMFMKFLGGKVHQKSILLLQETVVDEGERMWTTLMTQQGLRQGDLEHHHHHH”: “not soluble”; for “MASWSHPQFEKGASTSLYKKAGRMSKFTWKELIQLGSPSKAYESSLACIAHIDMNAFFAQVEQMRCGLSKEDPVVCVQWNSIIAVSYAARKYGISRMDTIQEALKKCSNLIPIHTAVFKKGEDFWQYHDGCGSWVQDPAKQISVEDHKVSLEPYRRESRKALKIFKSACDLVERASIDEVFLDLGRICFNMLMFDNEYELTGDLKLKDALSNIREAFIGGNYDINSHLPLIPEKIKSLKFEGDVFNPEGRDLITDWDDVILALGSQVCKGIRDSIKDILGYTTSCGLSSTKNVCKLASNYKKPDAQTIVKNDCLLDFLDCGKFEITSFWTLGGVLGKELIDVLDLPHENSIKHIRETWPDNAGQLKEFLDAKVKQSDYDRSTSNIDPLKTADLAEKLFKLSRGRYGLPLSSRPVVKSMMSNKNLRGKSCNSIVDCISWLEVFCAELTSRIQDLEQEYNKIVIPRTVSISLKTKSYEVYRKSGPVAYKGINFQSHELLKVGIKFVTDLDIKGKNKSYYPLTKLSMTITNFDIIDLQKTVVDMFGNQVHTFKSSAG”: “soluble”.

With “MEISTLPIYHTKTKMFGYYAYKSFSFLPEWKIDVTRDFDVTIGPKFSANLVFGVNNRNRSDYTQFVIDKDEIIVSASVGEEVDFNYRLRDNLKAYIGLEAQVGIGERIYTKSGLYDTGKKIEGSSENAFKPYTPYIIFNNTHIMYSGKVSAGLKIRDKYNIALYGGYGKGYFGIEFGQTF”, the “soluble on expression in E. coli” value is recorded as “not soluble”. With “MKGIMVQGTASDVGKSLICTALCRIFARRGYKVTPFKSQNMSNNSYITVEGLEIGRAQGIQAEAAMEEASVYMNPILLKPRNDREAEIVCFGQAVDTVSGVKYRDGFYKRGLEAIKQALATLSQSFDMVVIEGAGSPVEVNLNDRELVNMKVAELADVPVILVADIERGGVFASLYGTLELLQPNERKRVVGIIVNKFRGDPELFSSGVQWIEQHLGVPVLGVLPHLPGVRIEGEDSLSKGQVTSVLPRDQSIDIAVLDLPYLSNYTDLEPFRYEEDVAIRFVSSVDALGRPDAIILPGTKSTFHDLQILKEKGFKERLHEYVTTDGTVVAICGGFQMLGHRLIDVAGSDTGIKGATIDGLDLAPVETRFAEKKKTVRSLGQLLHPFGTAKDIYGFEIHLGETDIVDPSIPAFLRVGNHTDGVYLHEGRLIGTYFHHLFFNDDFRSGWLNTLRRKKGLRERPTVELEKCRRASYDQLADEVERVLHVDSLLEKMERWGETS” the entry was “soluble”; with “MGSDKIHHHHHHMDIKQLKYFVEIVKSGFNLSIASKTLHISQPALSQIIKNFEESEDVYLFERYKGRLNGLTPAGERFYVNAEHIINEYKNMMEDLREDSVQFKGKVRIGIPPLILGIAFSDVVAQLVANNPDIEFDIVEKGAYDLNRMLILQELDYAVLLHPHKIDKSVVTEHVLQEDELTAFLNINHPLAKKDKIDWNDLNEQLLAIFNPTFMIHHKLMQKFTDENVKLKRYIMSGSWDFLLLSTTNSDFITILPSPVHDFFENSKIIEKPFNHPITWKVILCRPKKERYSHVDQHVFKFIIDFFSKKNS”, “not soluble”. Take “DIQMNQSPSSLSASLGDTITITCHASQNINVWLNWFQQKPGSIPKLLIYMASNLHTGVPSRFSGSGSGTGFTLTISSLQPEDIATYYCQQGQSFPLTFGGGTKLEIKRADAAPTVSIFPPSSEQLTSGGASVVCFLNNFYPKDINVKWKIDGSERQNGVLNSWTDQDSKDSTYSMSSTLTLTKDEYERHNSYTCEATHKTSTSPIVKSFNRN”: the “soluble on expression in E. coli” value is given as “soluble”. In the case of “SIRFVIDREECFSHKAEYEGDTLHVSFVVIKSDSQWHFNEDGVDLVIHGPTGEQIHDFREQISAKHDFVVQKKGVYRFCFTNKSPYHETIDFDVQLGHFAYYDQHAKDEHFTPLMEQISKLEEALYNIQFEQHWLEAQTDRQAIVNENMSKRAVHKALFESFALIGASFLQVYLLRRLFERKLGMSRV”, the “soluble on expression in E. coli” value is on record as “soluble”. With “MDDLRIEYDAPNDVYFPGQAVTGKVIIQNREWIKARFLKICIHGGAHTHWSESRSTYRTNTRGERERFTENVNYNATINYLTGESIAWQSRDGTDRLPAGTNVFPFAFNLPINCAPSFEGCHGHIRYDVHVELDRPWKFNKKSRKCFSVIPVFDLNITPTAINPMVNTASKNTGLILKKGLVTITVNLPKRGYVAGEIMPITVNIDNGSKVAVSEVSAKMTQLSHFHASHGNMIGVTAHTHNRNDEKLVAESRRVADVPAKSRGQMVLSMKIPAIVPSFNCPIIAVDYCLTVKVSTQQIFGGGLKCEFPLIIGTIPIRQMNQAAPGAMPTMPSVSAPPYPVVAGASASQAVYPTAPSAPPASPGGEAPPSYEESVHGAGKVEDAEAFAPRYPVYNNLPQQQNSQLPPEYAPPLPAKSGF” the entry was “not soluble”; with “MTIEHGIWPGKIDIYEKNFNTGQKCMRNPFQNPFPESDTARHSIWEMLVSRDIDAFLAADWSMVADDFVEESFIGVDGRRETNPDKWRLTFPSLAVYRDEWLRQARDFAGQSFAEDPREAIFTTTTLEDIEVDGELALARKKFDGGLKKADGTFDVMKWQTVYYCRLHRGRWKICGFTGYLPNPMGSN”, “soluble”.
